Consider one molecule from patent US20050266004A1 (published 2005).

Assay [1] has as its target T1, recombinant human lymphotoxin alpha (rhuLTα) (human, UniProt P01374 35-205).
T1 sequence (looked up): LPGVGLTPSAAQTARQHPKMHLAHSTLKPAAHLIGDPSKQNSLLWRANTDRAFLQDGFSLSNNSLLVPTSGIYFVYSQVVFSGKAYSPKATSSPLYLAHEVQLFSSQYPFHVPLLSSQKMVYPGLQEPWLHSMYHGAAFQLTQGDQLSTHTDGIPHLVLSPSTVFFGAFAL
The assay can be described thus: cell-based or functional assay.

The target of a further assay is T2, murine LTα (murine, UniProt P09225 34-202, limits assumed).
T2 construct: Coated as recombinant protein in the EIA; used as 'murine LTα lysates' in the WEHI assay; also called murine LTα lysates
T2 sequence (looked up): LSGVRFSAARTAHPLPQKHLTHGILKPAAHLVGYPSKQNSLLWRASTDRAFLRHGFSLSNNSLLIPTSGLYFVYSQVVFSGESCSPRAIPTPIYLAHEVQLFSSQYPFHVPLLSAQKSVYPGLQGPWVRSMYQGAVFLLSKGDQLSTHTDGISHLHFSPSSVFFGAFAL
The assay can be described thus: EIA, recombinant protein coated at 1 µg/mL. Here is the method:
(§1) Enzyme immunoassays (EIAs) were used to test hybridoma cell supernatants for the presence of murine anti-LTα Mabs. Briefly, plates were coated with rhuLTα at 10 μg/mL in PBS overnight. After washing in 0.15 M saline containing 0.02% (v/v) Tween 20, the wells were blocked with 1% (w/v) BSA in PBS for 1 hour at RT. Undiluted hybridoma supernatants were incubated on the plates for one hour at 37° C. The plates were washed and probed with HRP-conjugated goat anti-mouse IgG Fc specific antibody for one hour at 37° C. The plates were again washed and citrate-phosphate substrate solution (0.1 M citric acid and 0.2 M sodium phosphate, 0.01% H₂O₂ and 1 mg/mL OPD) was added for 15 minutes at RT. Stop solution (4N sulfuric acid) was then added and the OD's were read at 490 nm using an automated plate spectrophotometer. The anti-human LTα Mabs were assessed for their ability to cross-react with murine LTα or human TNFα. The recombinant proteins were coated on EIA plates at 1 μg/mL in the same manner described above. Purified Mabs were incubated on the plates in serial dilutions starting at […] for 1 hour at 37° C. The plates were washed, probed and processed as above. […] Eight different hybridoma clones that secrete a murine IgG1 κ Mab specifically binds to rhuLTα.

The target in the next assay is T3, human TNFα (human, UniProt P01375 77-233).
T3 construct: Coated as recombinant protein in the EIA
T3 sequence (P01375 77-233 limits assumed): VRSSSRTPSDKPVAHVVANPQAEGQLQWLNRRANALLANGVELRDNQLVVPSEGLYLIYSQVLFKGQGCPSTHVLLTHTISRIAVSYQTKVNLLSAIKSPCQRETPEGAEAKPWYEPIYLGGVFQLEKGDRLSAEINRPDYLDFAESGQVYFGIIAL
The experiment in a line: EIA, recombinant protein coated at 1 µg/mL. Here is the method: as §1

For assay [2], the target named is T1, recombinant human lymphotoxin alpha …. The assay can be described thus: SPR; Mab captured on immobilized anti-murine Fc antibody, rhuLTα in solution. Here is the method: The affinity of anti-human LTα Mabs for rhuLTα was determined using surface plasmon resonance technology. The murine Mabs were first captured on chips that contained immobilized polyclonal anti-murine Fc antibody. Buffer containing rhuLTα was then passed over the captured Mab molecules and the resulting change in the mass bound over time was recorded.

B1: murine anti-human LTα Mab 4 (antibody, V domains shown)
VH: PGLVAPAQSLSITCTVSGFSLTSYGVHWVRQPPGKGLEWLGVIWAGGNTNYNSPLMSRLRIIKDNSKSQVFLKMNSLQADDTAMYYCVSHDVNNPFGYWGQGTLVTVSA
VL: DIQMTQTTSSLSASLGDRVTISCRASQDITNYLNWYQQKPDGTVKLLIYYTSRLHSGVPSRFSGSGSGTDYSLTISNLEQEDIATYFCQQGNTLPYTFGGGTRLEIK
notes: Tested as the murine IgG1 kappa hybridoma Mab; also called Mab number 4
Take B1: in assay [1], the “IC50, inhibition of LTα-mediated WEHI 164 cell cytotoxicity, rhuLTα at 10 ng/mL” value is 6.2 mg/L; the “IC50, inhibition of WEHI 164 cell cytotoxicity, rhuLTα at 0.1 ng/mL” value is 0.54 mg/L; the “normalized molar ratio of Mab to rhuLTα at the IC50 value, rhuLTα at 0.1 ng/mL” value was 1800 molar ratio Mab:rhuLTα. Further, in the assay with murine LTα, the binding result was “no binding (tested: serial dilutions starting at 25 µg/nL)”. Also, in the assay with human TNFα, the binding result is given as “no binding (tested: serial dilutions starting at 25 µg/nL)”. In assay [2], the Kd (usually a measure of binding affinity in units of concentration) was 1.1 nM.
